Source: PMC5746248, “Comparative analysis of the end-joining activity of several DNA ligases”

What was measured:
Experiment in all cases: fluorescence anisotropy; 10 mM MgCl2, 1 mM ATP; T4 DNA ligase reaction buffer: 50 mM Tris-HCl pH 7.5 (25°C), 1 mM ATP, 10 mM MgCl2; 750 pM-4 nM DNA; anisotropy temperature not stated
Sso7d = target: T1, Sso7d (Sulfolobus solfataricus, UniProt P39476 2-64); conditions: protein: recombinant; tags: N-terminal His6; label: 3'-FAM on one strand; blunt
T1 sequence: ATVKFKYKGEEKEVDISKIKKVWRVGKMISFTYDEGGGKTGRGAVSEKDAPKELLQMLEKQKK

PBCV1-Nterm-T4NTD = PBCV1-Nterm-T4NTD (bacteriophage T4 (T4NTD) / Paramecium …, UniProt P00970 1-135+O41026:1-298, internal_change); conditions: protein: recombinant; tags: N-terminal His6; label: 3'-FAM on one strand; blunt
hLig3 ZnF = target: T2, hLig3 ZnF (human, UniProt P49916 88-206); conditions: protein: recombinant; tags: His10; label: 3'-FAM on one strand; blunt
T2 sequence: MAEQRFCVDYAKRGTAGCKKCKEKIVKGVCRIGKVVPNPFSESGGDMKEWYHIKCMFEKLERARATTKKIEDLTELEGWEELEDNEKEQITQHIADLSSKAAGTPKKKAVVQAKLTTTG

T4 DNA ligase = target: T3, T4 DNA ligase (bacteriophage T4, UniProt P00970 1-487); conditions: label: 3'-FAM on one strand; blunt
T3 sequence: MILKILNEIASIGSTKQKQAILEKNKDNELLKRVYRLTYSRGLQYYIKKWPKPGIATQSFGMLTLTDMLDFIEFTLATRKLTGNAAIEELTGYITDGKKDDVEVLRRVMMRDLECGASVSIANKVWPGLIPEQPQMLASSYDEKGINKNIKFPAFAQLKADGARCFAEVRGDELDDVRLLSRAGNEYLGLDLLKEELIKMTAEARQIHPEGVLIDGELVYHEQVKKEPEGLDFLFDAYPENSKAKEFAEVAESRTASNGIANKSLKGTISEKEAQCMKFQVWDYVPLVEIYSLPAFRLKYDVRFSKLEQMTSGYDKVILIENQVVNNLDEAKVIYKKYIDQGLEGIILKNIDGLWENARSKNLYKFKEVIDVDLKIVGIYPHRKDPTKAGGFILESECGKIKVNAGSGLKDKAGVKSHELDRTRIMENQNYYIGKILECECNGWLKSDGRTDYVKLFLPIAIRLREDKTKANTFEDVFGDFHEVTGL

[1] = target: T4, hLig3 (human DNA ligase III beta) (human, UniProt P49916-2 88-949); conditions: protein: recombinant; tags: N-terminal His6; label: 3'-FAM on one strand; blunt
T4 sequence: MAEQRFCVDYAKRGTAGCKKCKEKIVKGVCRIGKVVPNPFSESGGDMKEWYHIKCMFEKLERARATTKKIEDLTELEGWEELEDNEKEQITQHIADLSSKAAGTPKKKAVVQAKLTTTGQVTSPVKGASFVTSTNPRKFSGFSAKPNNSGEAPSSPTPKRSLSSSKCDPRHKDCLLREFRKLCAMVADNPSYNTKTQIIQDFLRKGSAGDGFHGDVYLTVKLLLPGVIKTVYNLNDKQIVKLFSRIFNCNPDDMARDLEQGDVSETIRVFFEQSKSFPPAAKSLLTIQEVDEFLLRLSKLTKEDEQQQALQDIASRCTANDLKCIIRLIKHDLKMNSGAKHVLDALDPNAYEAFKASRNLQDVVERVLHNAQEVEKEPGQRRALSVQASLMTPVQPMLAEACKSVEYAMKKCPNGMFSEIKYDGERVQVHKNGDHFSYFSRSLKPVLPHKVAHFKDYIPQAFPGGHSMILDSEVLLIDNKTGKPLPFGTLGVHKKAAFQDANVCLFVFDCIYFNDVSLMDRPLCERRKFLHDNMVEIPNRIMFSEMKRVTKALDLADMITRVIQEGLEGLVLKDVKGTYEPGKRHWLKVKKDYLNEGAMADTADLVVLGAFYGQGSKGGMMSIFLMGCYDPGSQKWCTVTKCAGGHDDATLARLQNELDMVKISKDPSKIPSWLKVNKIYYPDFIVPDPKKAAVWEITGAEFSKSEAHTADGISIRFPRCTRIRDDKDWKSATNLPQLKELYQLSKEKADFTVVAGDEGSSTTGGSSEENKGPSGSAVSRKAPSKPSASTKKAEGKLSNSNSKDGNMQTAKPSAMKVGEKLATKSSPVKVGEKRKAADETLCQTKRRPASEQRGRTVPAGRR

T3 DNA ligase = target: T5, T3 DNA ligase (bacteriophage T3, UniProt P07717 1-346); conditions: label: 3'-FAM on one strand; blunt
T5 sequence: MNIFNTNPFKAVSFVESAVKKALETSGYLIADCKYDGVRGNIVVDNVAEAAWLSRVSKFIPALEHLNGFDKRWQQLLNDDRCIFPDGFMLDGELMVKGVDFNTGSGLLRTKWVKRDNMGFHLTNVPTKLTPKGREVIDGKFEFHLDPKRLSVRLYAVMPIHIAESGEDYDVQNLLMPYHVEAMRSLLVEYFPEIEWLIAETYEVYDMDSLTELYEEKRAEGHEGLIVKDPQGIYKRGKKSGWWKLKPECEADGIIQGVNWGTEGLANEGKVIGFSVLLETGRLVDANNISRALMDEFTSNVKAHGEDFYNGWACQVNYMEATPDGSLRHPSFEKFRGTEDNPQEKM

PBCV1 DNA ligase = target: T6, PBCV1 DNA ligase (Paramecium bursaria chlorella virus 1, UniProt O41026 1-298); conditions: protein: recombinant; label: 3'-FAM on one strand; blunt
T6 sequence: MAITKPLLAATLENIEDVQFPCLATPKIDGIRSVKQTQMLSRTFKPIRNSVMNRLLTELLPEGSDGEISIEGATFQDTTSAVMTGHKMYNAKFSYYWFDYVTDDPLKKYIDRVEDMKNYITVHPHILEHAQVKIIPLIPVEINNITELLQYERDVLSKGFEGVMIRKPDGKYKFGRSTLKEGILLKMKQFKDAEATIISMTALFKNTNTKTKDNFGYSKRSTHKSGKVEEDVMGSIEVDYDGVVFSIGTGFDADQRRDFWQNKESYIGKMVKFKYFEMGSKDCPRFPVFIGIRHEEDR

B1: Anisotropy 24mer dsDNA (dsDNA)
DNA 1: GATCGTCCTTGGTGATCATGCATC
DNA 2: GATGCATGATCACCAAGGACGATC
Kd (Sso7d): 430 ± 60 nM
Kd (PBCV1-Nterm-T4NTD): 243 ± 39 nM
Kd (hLig3 ZnF): 21 ± 1 nM
Kd (T4 DNA ligase): 1900 ± 100 nM
Kd [1]: 3.8 ± 0.2 nM
Kd (T3 DNA ligase): 6.4 ± 0.4 µM
Kd (PBCV1 DNA ligase): 990 ± 80 nM
